In general, Ki refers to the equilibrium dissociation constant of an inhibitor or competing ligand from its target. A higher Ki goes with lower affinity.

Ki data for 1 molecule are collected here from patent US6713265.

For this test, the target named is T1, rat Y4 receptor (rat), Q63447.
T1 chain: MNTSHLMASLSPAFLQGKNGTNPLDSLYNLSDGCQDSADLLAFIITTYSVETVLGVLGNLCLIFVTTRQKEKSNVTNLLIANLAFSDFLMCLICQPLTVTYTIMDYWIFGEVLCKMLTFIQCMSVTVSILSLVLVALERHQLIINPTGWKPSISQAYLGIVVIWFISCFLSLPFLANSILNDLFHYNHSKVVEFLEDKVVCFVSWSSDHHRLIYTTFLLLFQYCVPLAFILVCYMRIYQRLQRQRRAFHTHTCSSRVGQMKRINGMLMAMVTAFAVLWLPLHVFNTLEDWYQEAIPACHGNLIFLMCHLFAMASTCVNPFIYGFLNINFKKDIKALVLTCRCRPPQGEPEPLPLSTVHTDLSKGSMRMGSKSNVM
As to the kind of experiment: 125I-PYY displacement, COS-7 membranes. The conditions noted are these: remark: other sources report otherwise.

B1: porcine NPY13-36, P01304 22-45 (peptide, UniProt P01304 22-45, looked up)
peptide: PAEDLARYYSALRHYINLITRQRY
B1 showed a Ki of 140 nM.
